Test results from patent US20210030885A1, “HUMANIZED ANTI-LIV1 ANTIBODIES FOR THE TREATMENT OF CANCER” (priority 2019, published 2021).

Tested on: patients with metastatic breast cancer
Test: Phase 1 dose-escalation study, safety and tolerability of weekly LV (Day 1, 8, 15 of 3-week cycle)
Format: in vivo, human
Source text: This is a phase 1, open label, dose escalation study to evaluate the safety and tolerability of ladiratuzumab vedotin (LV) in patients with metastatic breast cancer.
Eligible patients are females at least 18 years of age who have incurable, unresectable, locally advanced or metastatic breast cancer (LA/mBC). Patients must have pathologically and radiologically confirmed hormone receptor-positive/human epidermal growth factor 2 negative (HR+/HER2−) or metastatic triple-negative breast cancer (mTNBC) with at least 1 measurable lesion per RECIST v1.1. Subjects with HR+/HER2− disease must have received no more than 1 prior line of cytotoxic chemotherapy in the locally advanced (LA)/mBC setting, either as single agent or combination therapy. Subjects with TNBC must have received 1 prior line of cytotoxic chemotherapy in the LA/mBC setting. Progression within 6 months of completion of neoadjuvant therapy is considered an LA/mBC regimen. Enrollment is open to all patients, irrespective of their LIV-1 expression level. Available and adequate archival baseline tumor sample is required. A fresh biopsy sample may be submitted in place of an archival sample if medically feasible.
Up to […] will be enrolled (42 HR+/HER2− and 42 mTNBC) into dose escalation and dose-expansion cohorts. Patients will receive LV on Day 1, Day 8, and Day 15 in every 3-week cycle. The study will have dose escalation and expansions cohorts. Patients with HR+/HER2− and TN disease will be enrolled into separate dose-expansion cohorts for each dose level.
Dose escalation will be conducted using the modified toxicity probability interval (mTPI) method according to Ji Y. et al. Clin Trials 7(6):653-63 (2010). Only 1 dose-escalation cohort will be open at a time. Dose-expansion cohorts may be opened at any dose level that has cleared dose-limiting toxicity (DLT) evaluation. Initially, up to approximately 10 patients will be enrolled at each dose level. DLT evaluation will only include data from the dose-escalation cohorts, but the totality of data from all patients at each dose level will be used to determine the recommended weekly LV dose.
LV will be administered at a dose of 0.75 mg/kg to 1.75 mg/kg by intravenous infusion over the course of 30 minutes on Day 1, Day 8, and Day 15 in every 3-week cycle.
The DLT evaluation period is the first treatment cycle (3 weeks). A DLT will be defined as any AE≥Grade 3, according to the NCI CTCAE v4.03, that is possibly, probably, or definitely related to treatment with LV, unless evidence exists that the AE has an etiology other than the investigational agent (e.g., disease progression, pre-existing medical condition, underlying disease, intercurrent illness, or concomitant medication), and/or the event has no plausible temporal relationship to administration of the investigational agent.
Patients were enrolled in the study described in Example 19. Patients had either first or second line endocrine refractory HR+/HER2− metastatic breast cancer or second line metastatic triple negative breast cancer (TNBC). LV was administered at a dose of 1.0 mg/kg, 1.25 mg/kg, or 1.5 mg/kg by intravenous infusion over the course of 30 minutes on Day 1, Day 8, and Day 15 in every 3-week cycle as described in Example 19.

ladiratuzumab vedotin [LV]
Grade 5 ischemic colitis, subjects (1 mg/kg LV, unrelated to treatment): *Grade 5 ischemic colitis was observed in 1 subject treated with 1 mg/kg LV. This was unrelated to treatment.
Grade 3 or higher TEAE: Any Adverse Event (1.0 mg/kg Q1W, n = 20): 12 (60%) n (%)
Grade 3 or higher TEAE: Diarrhoea (1.0 mg/kg Q1W, n = 20): 1 (5%) n (%)
Grade 3 or higher TEAE: Fatigue (1.0 mg/kg Q1W, n = 20): 4 (20%) n (%)
Grade 3 or higher TEAE: Hyperglycemia (1.0 mg/kg Q1W, n = 20): 3 (15%) n (%)
Grade 3 or higher TEAE: Hypophosphataemia (1.0 mg/kg Q1W, n = 20): 1 (5%) n (%)
Grade 3 or higher TEAE: Myalgia (1.0 mg/kg Q1W, n = 20): 0 n (%)
Grade 3 or higher TEAE: Nausea (1.0 mg/kg Q1W, n = 20): 1 (5%) n (%)
Grade 3 or higher TEAE: Neutropenia (1.0 mg/kg Q1W, n = 20): 2 (10%) n (%)
Grade 3 or higher TEAE: Neutrophil count decreased (1.0 mg/kg Q1W, n = 20): 1 (5%) n (%)
Grade 3 or higher TEAE: Peripheral Sensory Neuropathy (1.0 mg/kg Q1W, n = 20): 3 (15%) n (%)
SAE: Anaemia (1.0 mg/kg Q1W, n = 20): 1 (5%) n (%)
SAE: Any Adverse Event (1.0 mg/kg Q1W, n = 20): 5 (25%) n (%)
SAE: Colitis (1.0 mg/kg Q1W, n = 20): 1 (5%) n (%)
SAE: Dehydration (1.0 mg/kg Q1W, n = 20): 1 (5%) n (%)
SAE: Diabetic ketoacidosis (1.0 mg/kg Q1W, n = 20): 1 (5%) n (%)
SAE: Dyspnoea (1.0 mg/kg Q1W, n = 20): 2 (10%) n (%)
SAE: Embolism (1.0 mg/kg Q1W, n = 20): 1 (5%) n (%)
SAE: Fatigue (1.0 mg/kg Q1W, n = 20): 1 (5%) n (%)
SAE: Febrile neutropenia (1.0 mg/kg Q1W, n = 20): 1 (5%) n (%)
SAE: Hyperglycaemia (1.0 mg/kg Q1W, n = 20): 1 (5%) n (%)
SAE: Pneumonia (1.0 mg/kg Q1W, n = 20): 0 n (%)
Grade 3 or higher TEAE: Any Adverse Event (1.25 mg/kg Q1W, n = 18): 14 (78%) n (%)
Grade 3 or higher TEAE: Diarrhoea (1.25 mg/kg Q1W, n = 18): 1 (6%) n (%)
Grade 3 or higher TEAE: Fatigue (1.25 mg/kg Q1W, n = 18): 2 (11%) n (%)
Grade 3 or higher TEAE: Hyperglycemia (1.25 mg/kg Q1W, n = 18): 1 (6%) n (%)
Grade 3 or higher TEAE: Hypophosphataemia (1.25 mg/kg Q1W, n = 18): 2 (11%) n (%)
Grade 3 or higher TEAE: Myalgia (1.25 mg/kg Q1W, n = 18): 1 (6%) n (%)
Grade 3 or higher TEAE: Nausea (1.25 mg/kg Q1W, n = 18): 1 (6%) n (%)
Grade 3 or higher TEAE: Neutropenia (1.25 mg/kg Q1W, n = 18): 4 (22%) n (%)
Grade 3 or higher TEAE: Neutrophil count decreased (1.25 mg/kg Q1W, n = 18): 1 (6%) n (%)
Grade 3 or higher TEAE: Peripheral Sensory Neuropathy (1.25 mg/kg Q1W, n = 18): 6 (33%) n (%)
SAE: Anaemia (1.25 mg/kg Q1W, n = 18): 0 n (%)
SAE: Any Adverse Event (1.25 mg/kg Q1W, n = 18): 5 (28%) n (%)
SAE: Colitis (1.25 mg/kg Q1W, n = 18): 0 n (%)
SAE: Dehydration (1.25 mg/kg Q1W, n = 18): 0 n (%)
SAE: Diabetic ketoacidosis (1.25 mg/kg Q1W, n = 18): 0 n (%)
SAE: Dyspnoea (1.25 mg/kg Q1W, n = 18): 1 (6%) n (%)
SAE: Embolism (1.25 mg/kg Q1W, n = 18): 0 n (%)
SAE: Fatigue (1.25 mg/kg Q1W, n = 18): 0 n (%)
SAE: Febrile neutropenia (1.25 mg/kg Q1W, n = 18): 0 n (%)
SAE: Hyperglycaemia (1.25 mg/kg Q1W, n = 18): 1 (6%) n (%)
SAE: Pneumonia (1.25 mg/kg Q1W, n = 18): 2 (11%) n (%)
Grade 3 or higher TEAE: Any Adverse Event (1.5 mg/kg Q1W, n = 2): 2 (100%) n (%)
Grade 3 or higher TEAE: Myalgia (1.5 mg/kg Q1W, n = 2): 1 (50%) n (%)
Grade 3 or higher TEAE: Neutropenia (1.5 mg/kg Q1W, n = 2): 1 (50%) n (%)
SAE: Anaemia (1.5 mg/kg Q1W, n = 2): 0 n (%)
SAE: Any Adverse Event (1.5 mg/kg Q1W, n = 2): 1 (50%) n (%)
SAE: Colitis (1.5 mg/kg Q1W, n = 2): 0 n (%)
SAE: Dehydration (1.5 mg/kg Q1W, n = 2): 0 n (%)
SAE: Diabetic ketoacidosis (1.5 mg/kg Q1W, n = 2): 0 n (%)
SAE: Dyspnoea (1.5 mg/kg Q1W, n = 2): 0 n (%)
SAE: Embolism (1.5 mg/kg Q1W, n = 2): 0 n (%)
SAE: Fatigue (1.5 mg/kg Q1W, n = 2): 0 n (%)
SAE: Febrile neutropenia (1.5 mg/kg Q1W, n = 2): 0 n (%)
SAE: Hyperglycaemia (1.5 mg/kg Q1W, n = 2): 0 n (%)
SAE: Pneumonia (1.5 mg/kg Q1W, n = 2): 0 n (%)
incidence of a variety of adverse events, Q1W vs Q3W (3.0-4.5 mg/kg per 3 weeks on Q1W vs. 2.5 mg/kg on Q3W): lower incidence
dose limiting toxicities (Dose level 0 (1 mg/kg Q1W), +1 (1.25 mg/kg Q1W), +2 (1.5 mg/kg Q1W)): no dose limiting toxicities observed
Adverse event incidence: Abdominal Pain (Q1W, N = 40): 7 (18%)
Adverse event incidence: Alopecia (Q1W, N = 40): 10 (25%)
Adverse event incidence: Constipation (Q1W, N = 40): 10 (25%)
Adverse event incidence: Decreased Appetite (Q1W, N = 40): 11 (28%)
Adverse event incidence: Diarrhea (Q1W, N = 40): 11 (28%)
Adverse event incidence: Fatigue (Q1W, N = 40): 18 (45%)
Adverse event incidence: Hypokalemia (Q1W, N = 40): 4 (10%)
Adverse event incidence: Nausea (Q1W, N = 40): 14 (35%)
Adverse event incidence: Neutropenia (Q1W, N = 40): 10 (25%)
Adverse event incidence: Peripheral Sensory Neuropathy (Q1W, N = 40): 9 (23%)
Adverse event incidence: Vomiting (Q1W, N = 40): 8 (20%)
Grade 3 or higher TEAE: Any Adverse Event (Total, all Q1W doses, n = 40): 28 (70%) n (%)
Grade 3 or higher TEAE: Diarrhoea (Total, all Q1W doses, n = 40): 2 (5%) n (%)
Grade 3 or higher TEAE: Fatigue (Total, all Q1W doses, n = 40): 6 (15%) n (%)
Grade 3 or higher TEAE: Hyperglycemia (Total, all Q1W doses, n = 40): 4 (10%) n (%)
Grade 3 or higher TEAE: Hypophosphataemia (Total, all Q1W doses, n = 40): 3 (8%) n (%)
Grade 3 or higher TEAE: Myalgia (Total, all Q1W doses, n = 40): 2 (5%) n (%)
Grade 3 or higher TEAE: Nausea (Total, all Q1W doses, n = 40): 2 (5%) n (%)
Grade 3 or higher TEAE: Neutropenia (Total, all Q1W doses, n = 40): 7 (18%) n (%)
Grade 3 or higher TEAE: Neutrophil count decreased (Total, all Q1W doses, n = 40): 2 (5%) n (%)
Grade 3 or higher TEAE: Peripheral Sensory Neuropathy (Total, all Q1W doses, n = 40): 9 (23%) n (%)
SAE: Anaemia (Total, all Q1W doses, n = 40): 1 (3%) n (%)
SAE: Any Adverse Event (Total, all Q1W doses, n = 40): 11 (28%) n (%)
SAE: Colitis (Total, all Q1W doses, n = 40): 1 (3%) n (%)
SAE: Dehydration (Total, all Q1W doses, n = 40): 1 (3%) n (%)
SAE: Diabetic ketoacidosis (Total, all Q1W doses, n = 40): 1 (3%) n (%)
SAE: Dyspnoea (Total, all Q1W doses, n = 40): 3 (8%) n (%)
SAE: Embolism (Total, all Q1W doses, n = 40): 1 (3%) n (%)
SAE: Fatigue (Total, all Q1W doses, n = 40): 1 (3%) n (%)
SAE: Febrile neutropenia (Total, all Q1W doses, n = 40): 1 (3%) n (%)
SAE: Hyperglycaemia (Total, all Q1W doses, n = 40): 2 (5%) n (%)
SAE: Pneumonia (Total, all Q1W doses, n = 40): 2 (5.%) n (%)
